Test results reported in US20040219615A1 (YEDA RESEARCH AND DEVELOPMENT, published 2004).

B5: clone #84 (other, UniProt Q99675 1-332, looked up)
chain: MAAVFLVTLYEYSPLFYIAVVFTCFIVTTGLVLGWFGWDVPVILRNSEETQFSTRVFKKQMRQVKNPFGLEITNPSSASITTGITLTTDCLEDSLLTCYWGCSVQKLYEALQKHVYCFRISTPQALEDALYSEYLYQEQYFIKKDSKEEIYCQLPRDTKIEDFGTVPRSRYPLVALLTLADEDDREIYDIISMVSVIHIPDRTYKLSCRILYQYLLLAQGQFHDLKQLFMSANNNFTPSNNSSSEEKNTDRSLLEKVGLSESEVEPSEENSKDCVVCQNGTVNWVLLPCRHTCLCDGCVKYFQQCPMCRQFVQESFALCSQKEQDKDKPKTL
notes: Isolated from the B-cell cDNA library with full-length RAP-2 as bait; The whole CGR19 entry is named; also called CGR19; Cell Growth Regulatory protein CGR19

Tests used:
[1] = biological target: T1, RAP-2 (RIP-associated protein-2), full-length (human, UniProt Q9Y6K9 1-419); assay: deletion analysis, self-association of RAP-2
T1 construct: Full-length RAP-2; The RIP screen first yielded a partial clone of about 1.5 Kb; also called 303; RAP-303

clone #84 = biological target: B5; assay: yeast two-hybrid test
[2] = biological target: T1, RAP-2 (RIP-associated protein-2), …; assay: binding assay tests (two-hybrid)
TRAF2 = biological target: T2, TRAF2 (UniProt Q12933 1-501, limits assumed); assay: yeast two-hybrid test
T2 sequence (looked up): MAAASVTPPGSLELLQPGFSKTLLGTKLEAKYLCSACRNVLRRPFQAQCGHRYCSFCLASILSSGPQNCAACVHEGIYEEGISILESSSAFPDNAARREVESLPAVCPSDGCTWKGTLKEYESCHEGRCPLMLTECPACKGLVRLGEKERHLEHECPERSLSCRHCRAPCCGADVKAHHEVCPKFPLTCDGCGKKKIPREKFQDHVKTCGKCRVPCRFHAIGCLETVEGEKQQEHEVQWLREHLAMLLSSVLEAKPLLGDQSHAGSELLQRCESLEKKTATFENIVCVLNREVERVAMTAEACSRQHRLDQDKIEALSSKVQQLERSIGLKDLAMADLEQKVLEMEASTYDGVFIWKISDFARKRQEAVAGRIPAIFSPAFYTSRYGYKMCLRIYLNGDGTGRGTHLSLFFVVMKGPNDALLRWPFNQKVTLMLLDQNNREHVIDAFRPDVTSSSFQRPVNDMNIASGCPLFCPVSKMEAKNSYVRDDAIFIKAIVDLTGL

[3] = biological target: T3, RIP (receptor interacting protein) (human, UniProt Q13546 1-671); assay: yeast two-hybrid test
T3 construct: mature; Full-length RIP was the two-hybrid bait; In co-immunoprecipitation it was pulled down with anti-FLAG mAbs (FLAG tag implied); also called RIP protein
T3 sequence (looked up): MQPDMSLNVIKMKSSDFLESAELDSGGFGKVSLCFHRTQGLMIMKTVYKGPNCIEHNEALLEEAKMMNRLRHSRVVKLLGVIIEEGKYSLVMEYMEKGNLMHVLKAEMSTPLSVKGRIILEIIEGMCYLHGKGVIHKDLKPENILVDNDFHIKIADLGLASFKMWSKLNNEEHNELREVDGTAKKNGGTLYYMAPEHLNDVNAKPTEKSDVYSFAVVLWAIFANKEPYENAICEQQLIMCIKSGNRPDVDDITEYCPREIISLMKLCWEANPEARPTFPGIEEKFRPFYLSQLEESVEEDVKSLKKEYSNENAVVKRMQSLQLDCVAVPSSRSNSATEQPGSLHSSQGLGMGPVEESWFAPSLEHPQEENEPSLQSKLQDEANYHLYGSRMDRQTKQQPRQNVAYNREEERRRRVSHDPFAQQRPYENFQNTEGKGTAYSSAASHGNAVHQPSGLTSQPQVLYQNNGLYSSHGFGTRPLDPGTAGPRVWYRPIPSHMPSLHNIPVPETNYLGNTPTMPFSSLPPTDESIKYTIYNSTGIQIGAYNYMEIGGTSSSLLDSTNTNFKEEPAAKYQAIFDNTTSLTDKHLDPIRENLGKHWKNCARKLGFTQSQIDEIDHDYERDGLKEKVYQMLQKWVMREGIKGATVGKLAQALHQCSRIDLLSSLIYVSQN

NIK = NIK (UniProt Q99558 1-947); assay: yeast two-hybrid test
[4] = biological target: T4, TIP60 (histone acetyltransferase) (UniProt Q92993 1-513, limits assumed); assay: yeast two-hybrid test
[5] = biological target: T4, TIP60 (histone acetyltransferase); assay: deletion analysis of RAP-2

T4 sequence (Q92993 whole entry): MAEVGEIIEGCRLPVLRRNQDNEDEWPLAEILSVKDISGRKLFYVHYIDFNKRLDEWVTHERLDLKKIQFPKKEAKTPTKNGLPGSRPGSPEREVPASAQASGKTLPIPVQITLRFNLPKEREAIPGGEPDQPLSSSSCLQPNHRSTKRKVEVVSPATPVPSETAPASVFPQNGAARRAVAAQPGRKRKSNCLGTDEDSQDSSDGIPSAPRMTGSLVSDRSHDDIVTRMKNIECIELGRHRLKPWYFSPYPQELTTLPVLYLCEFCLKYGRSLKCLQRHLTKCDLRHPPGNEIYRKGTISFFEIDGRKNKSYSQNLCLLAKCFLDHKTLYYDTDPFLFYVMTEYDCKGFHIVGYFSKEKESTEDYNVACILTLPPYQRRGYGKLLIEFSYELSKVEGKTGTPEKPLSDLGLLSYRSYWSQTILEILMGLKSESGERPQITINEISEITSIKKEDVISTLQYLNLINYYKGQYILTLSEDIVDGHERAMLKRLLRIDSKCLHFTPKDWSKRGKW
Sequence of NIK (Q99558 whole entry): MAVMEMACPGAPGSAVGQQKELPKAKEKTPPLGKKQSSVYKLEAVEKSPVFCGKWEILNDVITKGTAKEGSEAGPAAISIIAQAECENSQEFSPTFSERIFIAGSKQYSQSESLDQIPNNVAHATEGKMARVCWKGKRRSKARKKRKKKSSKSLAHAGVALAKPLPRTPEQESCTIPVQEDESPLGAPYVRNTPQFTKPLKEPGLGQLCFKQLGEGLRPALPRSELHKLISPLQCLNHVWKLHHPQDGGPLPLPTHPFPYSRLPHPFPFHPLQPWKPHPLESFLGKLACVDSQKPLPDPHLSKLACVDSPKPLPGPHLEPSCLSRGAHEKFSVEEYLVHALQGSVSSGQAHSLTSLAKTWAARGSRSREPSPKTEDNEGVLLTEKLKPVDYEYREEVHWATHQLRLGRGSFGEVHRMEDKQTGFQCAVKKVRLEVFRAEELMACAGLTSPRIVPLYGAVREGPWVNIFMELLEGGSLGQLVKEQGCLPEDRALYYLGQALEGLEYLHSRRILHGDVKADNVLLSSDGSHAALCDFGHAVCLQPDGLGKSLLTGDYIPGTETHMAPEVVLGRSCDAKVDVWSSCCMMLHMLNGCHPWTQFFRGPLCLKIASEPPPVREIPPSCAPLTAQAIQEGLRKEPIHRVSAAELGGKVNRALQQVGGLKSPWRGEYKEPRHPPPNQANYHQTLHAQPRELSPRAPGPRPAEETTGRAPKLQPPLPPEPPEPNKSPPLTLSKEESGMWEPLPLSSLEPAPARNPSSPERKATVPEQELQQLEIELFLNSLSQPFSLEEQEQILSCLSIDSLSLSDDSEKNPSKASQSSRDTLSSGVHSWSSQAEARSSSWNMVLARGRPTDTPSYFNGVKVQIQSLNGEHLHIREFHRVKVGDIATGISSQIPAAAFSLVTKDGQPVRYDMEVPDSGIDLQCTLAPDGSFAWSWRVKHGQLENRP

B1: RAP-2 deletion fragment containing amino acids 218-416 (other)
chain: QAASEEKRKLAQLQVAYHQLFQEYDNHIKSSVVGSERKRGMQLEDLKQQLQQAEEALVAKQEVIDKLKEEAEQHKIVMETVPVLKAQADIYKADFQAERQAREKLAEKKELLQEQLEQLQREYSKLKASCQESARIEDMRKRHVEVSQAPLPPAPAYLSSPLALPSQRRSPPEEPPDFCCPKCQYQAPDMDTLQIHVME
binding result [1]: binds

B2: RAP-2 deletion fragment containing amino acids 1-264 (other)
chain: MNRHLWKSQLCEMVQPSGGPAADQDVLGEESPLGKPAMLHLPSEQGAPETLQRCLEENQELRDAIRQSNQILRERCEELLHFQASQREEKEFLMCKFQEARKLVERLGLEKLDLKRQKEQALREVEHLKRCQQQMAEDKASVKAQVTSLLGELQESQSRLEAATKECQALEGRARAASEQARQLESEREALQQQHSVQVDQLRMQGQSVEAALRMERQAASEEKRKLAQLQVAYHQLFQEYDNHIKSSVVGSERKRGMQLEDLK
binding result [1]: binds

B3: TRADD (other, UniProt Q15628 1-312, looked up)
chain: MAAGQNGHEEWVGSAYLFVESSLDKVVLSDAYAHPQQKVAVYRALQAALAESGGSPDVLQMLKIHRSDPQLIVQLRFCGRQPCGRFLRAYREGALRAALQRSLAAALAQHSVPLQLELRAGAERLDALLADEERCLSCILAQQPDRLRDEELAELEDALRNLKCGSGARGGDGEVASAPLQPPVPSLSEVKPPPPPPPAQTFLFQGQPVVNRPLSLKDQQTFARSVGLKWRKVGRSLQRGCRALRDPALDSLAYEYEREGLYEQAFQLLRRFVQAEGRRATLQRLVEALEENELTSLAEDLLGLTDPNGGLA
binding result (clone #84): no binding | binding result [2]: no binding

B4: MORT-1 (other, UniProt Q13158 1-208, looked up)
chain: MDPFLVLLHSVSSSLSSSELTELKFLCLGRVGKRKLERVQSGLDLFSMLLEQNDLEPGHTELLRELLASLRRHDLLRRVDDFEAGAAAGAAPGEEDLCAAFNVICDNVGKDWRRLARQLKVSDTKIDSIEDRYPRNLTERVRESLRIWKNTEKENATVAHLVGALRSCQMNLVADLVQEVQQARDLQNRSGAMSPMSWNSDASTSEAS
notes: also called FADD
binding result (clone #84): no binding | binding result [2]: no binding

B5
binding result (TRAF2): no binding | binding result [3]: no binding | binding result (NIK): no binding | binding result [4]: no binding

B6: RAP-2 deletion fragment spanning amino acids 95-309 (other)
chain: CKFQEARKLVERLGLEKLDLKRQKEQALREVEHLKRCQQQMAEDKASVKAQVTSLLGELQESQSRLEAATKECQALEGRARAASEQARQLESEREALQQQHSVQVDQLRMQGQSVEAALRMERQAASEEKRKLAQLQVAYHQLFQEYDNHIKSSVVGSERKRGMQLEDLKQQLQQAEEALVAKQEVIDKLKEEAEQHKIVMETVPVLKAQADIYK
binding result [5]: no binding

B7: p55-R (p55 TNF receptor) (receptor, UniProt P19438 235-455, looked up)
chain: RYQRWKSKLYSIVCGKSTPEKEGELEGTTTKPLAPNPSFSPTPGFTPTLGFSPVPSSTFTSSSTYTPGDCPNFAAPRREVAPPYQGADPILATALASDPIPNPLQKWEDSAHKPQSLDTDDPATLYAVVENVPPLRWKEFVRRLGLSDHEIDRLELQNGRCLREAQYSMLATWRRRTPRREATLELLGRVLRDMDLLGCLEDIEEALCGPAALPPAPSLLR
notes: also called TNFR-I
binding result [2]: no binding

B8: p75-R (p75 TNF receptor) (receptor, UniProt P20333 287-461, looked up)
chain: VKKKPLCLQREAKVPHLPADKARGTQGPEQQHLLITAPSSSSSSLESSASALDRRAPTRNQPQAPGVEASGAGEARASTGSSDSSPGGHGTQVNVTCIVNVCSSSDHSSQCSSQASSTMGDTDSSPSESPKDEQVPFSKEECAFRSQLETPETLLGSTEEKPLPLGVPDAGMKPS
binding result [2]: no binding
